From patent publication US20210388087A1 (Chugai, published 2021)

The binders below were run against T1, CD3 epsilon homodimer protein (UniProt P07766 23-126) (assay: SPR Biacore T200, CD3e homodimer on chip, vs unaltered GLS3000 antibody).
T1 construct: also called CD3 (CD3 epsilon)
T1 sequence (P07766 23-126): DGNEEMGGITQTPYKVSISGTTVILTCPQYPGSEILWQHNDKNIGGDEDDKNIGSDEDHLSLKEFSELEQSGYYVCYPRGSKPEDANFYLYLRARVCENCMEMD

ratio of amounts bound (Z=Y/X)	Binder
1.04	GLS3000 S56Q (antibody, name in Kabat numbering, V domains shown, one-arm IgG as m2) VH: QVQLVESGGGVVQPGRSLRLSCAASGFTFSNAWMHWVRQAPGKGLEWVAQIKAKSNNYATYYAESVKGRFTISRDDSKNSLYLQMNSLKTEDTAVYYCRYVHYGAYYGVDAWGQGTTVTVSS VL: DIVMTQSPLSLPVTPGEPASISCRSSQSLVHSNRNTYLHWYQQKPGQAPRLLIYKVSNRFQGVPDRFSGSGSGTDFTLKISRVEAEDVGVYYCGQGTQVPYTFGQGTKLEIK
0.31	GLS3000 T31P (antibody, name in Kabat numbering, V domains shown, one-arm IgG as m2) VH: QVQLVESGGGVVQPGRSLRLSCAASGFTFSNAWMHWVRQAPGKGLEWVAQIKAKSNNYATYYAESVKGRFTISRDDSKNSLYLQMNSLKTEDTAVYYCRYVHYGAYYGVDAWGQGTTVTVSS VL: DIVMTQSPLSLPVTPGEPASISCRSSQSLVHSNRNPYLHWYQQKPGQAPRLLIYKVSNRFSGVPDRFSGSGSGTDFTLKISRVEAEDVGVYYCGQGTQVPYTFGQGTKLEIK
0.33	GLS3000 T92Y (antibody, name in Kabat numbering, V domains shown, one-arm IgG as m2) VH: QVQLVESGGGVVQPGRSLRLSCAASGFTFSNAWMHWVRQAPGKGLEWVAQIKAKSNNYATYYAESVKGRFTISRDDSKNSLYLQMNSLKTEDTAVYYCRYVHYGAYYGVDAWGQGTTVTVSS VL: DIVMTQSPLSLPVTPGEPASISCRSSQSLVHSNRNTYLHWYQQKPGQAPRLLIYKVSNRFSGVPDRFSGSGSGTDFTLKISRVEAEDVGVYYCGQGYQVPYTFGQGTKLEIK
0.32	GLS3000 T31N (antibody, name in Kabat numbering, V domains shown, one-arm IgG as m2) VH: QVQLVESGGGVVQPGRSLRLSCAASGFTFSNAWMHWVRQAPGKGLEWVAQIKAKSNNYATYYAESVKGRFTISRDDSKNSLYLQMNSLKTEDTAVYYCRYVHYGAYYGVDAWGQGTTVTVSS VL: DIVMTQSPLSLPVTPGEPASISCRSSQSLVHSNRNNYLHWYQQKPGQAPRLLIYKVSNRFSGVPDRFSGSGSGTDFTLKISRVEAEDVGVYYCGQGTQVPYTFGQGTKLEIK
0.49	GLS3000 T31E (antibody, name in Kabat numbering, V domains shown, one-arm IgG as m2) VH: QVQLVESGGGVVQPGRSLRLSCAASGFTFSNAWMHWVRQAPGKGLEWVAQIKAKSNNYATYYAESVKGRFTISRDDSKNSLYLQMNSLKTEDTAVYYCRYVHYGAYYGVDAWGQGTTVTVSS VL: DIVMTQSPLSLPVTPGEPASISCRSSQSLVHSNRNEYLHWYQQKPGQAPRLLIYKVSNRFSGVPDRFSGSGSGTDFTLKISRVEAEDVGVYYCGQGTQVPYTFGQGTKLEIK
0.23	GLS3000 T31D (antibody, name in Kabat numbering, V domains shown, one-arm IgG as m2) VH: QVQLVESGGGVVQPGRSLRLSCAASGFTFSNAWMHWVRQAPGKGLEWVAQIKAKSNNYATYYAESVKGRFTISRDDSKNSLYLQMNSLKTEDTAVYYCRYVHYGAYYGVDAWGQGTTVTVSS VL: DIVMTQSPLSLPVTPGEPASISCRSSQSLVHSNRNDYLHWYQQKPGQAPRLLIYKVSNRFSGVPDRFSGSGSGTDFTLKISRVEAEDVGVYYCGQGTQVPYTFGQGTKLEIK
0.26	GLS3000 T92P (antibody, name in Kabat numbering, V domains shown, one-arm IgG as m2) VH: QVQLVESGGGVVQPGRSLRLSCAASGFTFSNAWMHWVRQAPGKGLEWVAQIKAKSNNYATYYAESVKGRFTISRDDSKNSLYLQMNSLKTEDTAVYYCRYVHYGAYYGVDAWGQGTTVTVSS VL: DIVMTQSPLSLPVTPGEPASISCRSSQSLVHSNRNTYLHWYQQKPGQAPRLLIYKVSNRFSGVPDRFSGSGSGTDFTLKISRVEAEDVGVYYCGQGPQVPYTFGQGTKLEIK
0.95	GLS3000 S56V (antibody, name in Kabat numbering, V domains shown, one-arm IgG as m2) VH: QVQLVESGGGVVQPGRSLRLSCAASGFTFSNAWMHWVRQAPGKGLEWVAQIKAKSNNYATYYAESVKGRFTISRDDSKNSLYLQMNSLKTEDTAVYYCRYVHYGAYYGVDAWGQGTTVTVSS VL: DIVMTQSPLSLPVTPGEPASISCRSSQSLVHSNRNTYLHWYQQKPGQAPRLLIYKVSNRFVGVPDRFSGSGSGTDFTLKISRVEAEDVGVYYCGQGTQVPYTFGQGTKLEIK
1.36	GLS3000 S56R (antibody, name in Kabat numbering, V domains shown, one-arm IgG as m2) VH: QVQLVESGGGVVQPGRSLRLSCAASGFTFSNAWMHWVRQAPGKGLEWVAQIKAKSNNYATYYAESVKGRFTISRDDSKNSLYLQMNSLKTEDTAVYYCRYVHYGAYYGVDAWGQGTTVTVSS VL: DIVMTQSPLSLPVTPGEPASISCRSSQSLVHSNRNTYLHWYQQKPGQAPRLLIYKVSNRFRGVPDRFSGSGSGTDFTLKISRVEAEDVGVYYCGQGTQVPYTFGQGTKLEIK
0.17	GLS3000 T92E (antibody, name in Kabat numbering, V domains shown, one-arm IgG as m2) VH: QVQLVESGGGVVQPGRSLRLSCAASGFTFSNAWMHWVRQAPGKGLEWVAQIKAKSNNYATYYAESVKGRFTISRDDSKNSLYLQMNSLKTEDTAVYYCRYVHYGAYYGVDAWGQGTTVTVSS VL: DIVMTQSPLSLPVTPGEPASISCRSSQSLVHSNRNTYLHWYQQKPGQAPRLLIYKVSNRFSGVPDRFSGSGSGTDFTLKISRVEAEDVGVYYCGQGEQVPYTFGQGTKLEIK
1.04	GLS3000 T31K (antibody, name in Kabat numbering, V domains shown, one-arm IgG as m2) VH: QVQLVESGGGVVQPGRSLRLSCAASGFTFSNAWMHWVRQAPGKGLEWVAQIKAKSNNYATYYAESVKGRFTISRDDSKNSLYLQMNSLKTEDTAVYYCRYVHYGAYYGVDAWGQGTTVTVSS VL: DIVMTQSPLSLPVTPGEPASISCRSSQSLVHSNRNKYLHWYQQKPGQAPRLLIYKVSNRFSGVPDRFSGSGSGTDFTLKISRVEAEDVGVYYCGQGTQVPYTFGQGTKLEIK
1.46	GLS3000 S56Y (antibody, name in Kabat numbering, V domains shown, one-arm IgG as m2) VH: QVQLVESGGGVVQPGRSLRLSCAASGFTFSNAWMHWVRQAPGKGLEWVAQIKAKSNNYATYYAESVKGRFTISRDDSKNSLYLQMNSLKTEDTAVYYCRYVHYGAYYGVDAWGQGTTVTVSS VL: DIVMTQSPLSLPVTPGEPASISCRSSQSLVHSNRNTYLHWYQQKPGQAPRLLIYKVSNRFYGVPDRFSGSGSGTDFTLKISRVEAEDVGVYYCGQGTQVPYTFGQGTKLEIK
1.38	GLS3000 S56W (antibody, name in Kabat numbering, V domains shown, one-arm IgG as m2) VH: QVQLVESGGGVVQPGRSLRLSCAASGFTFSNAWMHWVRQAPGKGLEWVAQIKAKSNNYATYYAESVKGRFTISRDDSKNSLYLQMNSLKTEDTAVYYCRYVHYGAYYGVDAWGQGTTVTVSS VL: DIVMTQSPLSLPVTPGEPASISCRSSQSLVHSNRNTYLHWYQQKPGQAPRLLIYKVSNRFWGVPDRFSGSGSGTDFTLKISRVEAEDVGVYYCGQGTQVPYTFGQGTKLEIK
0.96	GLS3000 T92S (antibody, name in Kabat numbering, V domains shown, one-arm IgG as m2) VH: QVQLVESGGGVVQPGRSLRLSCAASGFTFSNAWMHWVRQAPGKGLEWVAQIKAKSNNYATYYAESVKGRFTISRDDSKNSLYLQMNSLKTEDTAVYYCRYVHYGAYYGVDAWGQGTTVTVSS VL: DIVMTQSPLSLPVTPGEPASISCRSSQSLVHSNRNTYLHWYQQKPGQAPRLLIYKVSNRFSGVPDRFSGSGSGTDFTLKISRVEAEDVGVYYCGQGSQVPYTFGQGTKLEIK
0.42	GLS3000 T92L (antibody, name in Kabat numbering, V domains shown, one-arm IgG as m2) VH: QVQLVESGGGVVQPGRSLRLSCAASGFTFSNAWMHWVRQAPGKGLEWVAQIKAKSNNYATYYAESVKGRFTISRDDSKNSLYLQMNSLKTEDTAVYYCRYVHYGAYYGVDAWGQGTTVTVSS VL: DIVMTQSPLSLPVTPGEPASISCRSSQSLVHSNRNTYLHWYQQKPGQAPRLLIYKVSNRFSGVPDRFSGSGSGTDFTLKISRVEAEDVGVYYCGQGLQVPYTFGQGTKLEIK
0.97	GLS3000 S56T (antibody, name in Kabat numbering, V domains shown, one-arm IgG as m2) VH: QVQLVESGGGVVQPGRSLRLSCAASGFTFSNAWMHWVRQAPGKGLEWVAQIKAKSNNYATYYAESVKGRFTISRDDSKNSLYLQMNSLKTEDTAVYYCRYVHYGAYYGVDAWGQGTTVTVSS VL: DIVMTQSPLSLPVTPGEPASISCRSSQSLVHSNRNTYLHWYQQKPGQAPRLLIYKVSNRFTGVPDRFSGSGSGTDFTLKISRVEAEDVGVYYCGQGTQVPYTFGQGTKLEIK
0.97	GLS3000 T31I (antibody, name in Kabat numbering, V domains shown, one-arm IgG as m2) VH: QVQLVESGGGVVQPGRSLRLSCAASGFTFSNAWMHWVRQAPGKGLEWVAQIKAKSNNYATYYAESVKGRFTISRDDSKNSLYLQMNSLKTEDTAVYYCRYVHYGAYYGVDAWGQGTTVTVSS VL: DIVMTQSPLSLPVTPGEPASISCRSSQSLVHSNRNIYLHWYQQKPGQAPRLLIYKVSNRFSGVPDRFSGSGSGTDFTLKISRVEAEDVGVYYCGQGTQVPYTFGQGTKLEIK
0.31	GLS3000 T97P (antibody, name in Kabat numbering, V domains shown, one-arm IgG as m2) VH: QVQLVESGGGVVQPGRSLRLSCAASGFTFSNAWMHWVRQAPGKGLEWVAQIKAKSNNYATYYAESVKGRFTISRDDSKNSLYLQMNSLKTEDTAVYYCRYVHYGAYYGVDAWGQGTTVTVSS VL: DIVMTQSPLSLPVTPGEPASISCRSSQSLVHSNRNTYLHWYQQKPGQAPRLLIYKVSNRFSGVPDRFSGSGSGTDFTLKISRVEAEDVGVYYCGQGTQVPYPFGQGTKLEIK
0.18	GLS3000 T92D (antibody, name in Kabat numbering, V domains shown, one-arm IgG as m2) VH: QVQLVESGGGVVQPGRSLRLSCAASGFTFSNAWMHWVRQAPGKGLEWVAQIKAKSNNYATYYAESVKGRFTISRDDSKNSLYLQMNSLKTEDTAVYYCRYVHYGAYYGVDAWGQGTTVTVSS VL: DIVMTQSPLSLPVTPGEPASISCRSSQSLVHSNRNTYLHWYQQKPGQAPRLLIYKVSNRFSGVPDRFSGSGSGTDFTLKISRVEAEDVGVYYCGQGDQVPYTFGQGTKLEIK
0.63	GLS3000 T92A (antibody, name in Kabat numbering, V domains shown, one-arm IgG as m2) VH: QVQLVESGGGVVQPGRSLRLSCAASGFTFSNAWMHWVRQAPGKGLEWVAQIKAKSNNYATYYAESVKGRFTISRDDSKNSLYLQMNSLKTEDTAVYYCRYVHYGAYYGVDAWGQGTTVTVSS VL: DIVMTQSPLSLPVTPGEPASISCRSSQSLVHSNRNTYLHWYQQKPGQAPRLLIYKVSNRFSGVPDRFSGSGSGTDFTLKISRVEAEDVGVYYCGQGAQVPYTFGQGTKLEIK
0.34	GLS3000 T92I (antibody, name in Kabat numbering, V domains shown, one-arm IgG as m2) VH: QVQLVESGGGVVQPGRSLRLSCAASGFTFSNAWMHWVRQAPGKGLEWVAQIKAKSNNYATYYAESVKGRFTISRDDSKNSLYLQMNSLKTEDTAVYYCRYVHYGAYYGVDAWGQGTTVTVSS VL: DIVMTQSPLSLPVTPGEPASISCRSSQSLVHSNRNTYLHWYQQKPGQAPRLLIYKVSNRFSGVPDRFSGSGSGTDFTLKISRVEAEDVGVYYCGQGIQVPYTFGQGTKLEIK
